This is an account of results in patent US20140363422A1 (IMMUNOQURE, published 2014).

Where two headings read alike, the source gives them in different places.

A word on the EC50: it is the concentration at which the effect is half-maximal. One may read the EC50 (read off the curve) as the concentration at which the effect is half-maximal. As a reminder, the kon is a measure of how fast the partners come together. The term Kd denotes the equilibrium constant for the complex coming apart. A high value points to lower affinity. One may read the koff as a measure of how fast the partners let go of each other.

Assay [1] concerns the target T1, human IL-17F (human, UniProt Q96PD4 31-163).
T1 sequence (looked up): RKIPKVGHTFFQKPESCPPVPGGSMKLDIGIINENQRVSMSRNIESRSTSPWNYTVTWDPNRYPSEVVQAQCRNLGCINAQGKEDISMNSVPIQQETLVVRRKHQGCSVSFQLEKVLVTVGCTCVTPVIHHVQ
Put plainly: cell-based or functional assay.

Assay [2] has as its target T1, human IL-17F. Kind of assay: EC50 in summary table; assay not named, taken as binding ELISA. On the technique in general: In an ELISA, binding on a coated surface is turned into a signal by an enzyme label.
The target of assay [3] is T1, human IL-17F. Put plainly: ELISA, titration of antibody 9A2 on recombinant human IL17F.
The target of assay [4] is T1, human IL-17F. Put plainly: SPR (ProteOn XPR36), antibody captured by anti-human IgG, IL-17F injected.
The target of assay [5] is T2, human IL-22 (human, UniProt Q9GZX6 34-179).
T2 construct: also called IL-22(h); interleukin-22
T2 sequence (looked up): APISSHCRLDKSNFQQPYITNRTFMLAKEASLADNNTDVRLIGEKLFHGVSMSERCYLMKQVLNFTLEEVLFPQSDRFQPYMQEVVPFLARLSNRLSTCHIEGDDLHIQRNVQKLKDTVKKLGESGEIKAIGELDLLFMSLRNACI
Put plainly: SPR (ProteOn XPR36), antibody captured by anti-human IgG (L2), IL-22 injected at 100 to 1.23 nM and buffer.

For assay [6], the target named is T3, IL-17A/IL-17F heterodimer (UniProt Q16552 24-155; Q96PD4 31-163).
T3 sequence (looked up) 1: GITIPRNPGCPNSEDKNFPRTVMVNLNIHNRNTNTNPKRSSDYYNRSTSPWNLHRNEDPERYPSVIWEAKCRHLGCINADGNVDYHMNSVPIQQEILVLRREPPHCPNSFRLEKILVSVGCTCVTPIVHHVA
T3 sequence (looked up) 2: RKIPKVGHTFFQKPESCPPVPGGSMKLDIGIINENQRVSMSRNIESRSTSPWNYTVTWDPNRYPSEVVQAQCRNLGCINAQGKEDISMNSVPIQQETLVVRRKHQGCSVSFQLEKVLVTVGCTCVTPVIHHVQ
Put plainly: cell-based or functional assay.

A further assay has as its target T4, human IL-17A (human, UniProt Q16552 24-155).
T4 construct: Bought recombinant protein; also called CTLA-8
T4 sequence (looked up): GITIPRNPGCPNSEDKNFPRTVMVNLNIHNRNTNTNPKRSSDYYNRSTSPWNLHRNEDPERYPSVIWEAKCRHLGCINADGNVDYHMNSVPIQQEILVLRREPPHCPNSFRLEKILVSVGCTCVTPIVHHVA
Kind of assay: EC50 in summary table; assay not named, taken as binding ELISA; IL-17A (A).

The target in assay [7] is T1, human IL-17F. Kind of assay: EC50 in summary table; assay not named, taken as binding ELISA; IL-17F (F).
Assay [8] deals with T2, human IL-22. Put plainly: SPR (ProteOn XPR36), antibody captured by anti-human IgG (L3), IL-22 injected at 100 to 1.23 nM and buffer.
The target in assay [9] is T2, human IL-22. Kind of assay: cell-based or functional assay.
The target of assay [10] is T2, human IL-22. Put plainly: EC50 in summary table; assay not named, taken as binding ELISA; human IL-22 (h).
Another assay deals with T5, mouse IL-22 (mouse, UniProt Q9JJY9 34-179).
T5 construct: also called murine IL-22; IL-22(m)
T5 sequence (looked up): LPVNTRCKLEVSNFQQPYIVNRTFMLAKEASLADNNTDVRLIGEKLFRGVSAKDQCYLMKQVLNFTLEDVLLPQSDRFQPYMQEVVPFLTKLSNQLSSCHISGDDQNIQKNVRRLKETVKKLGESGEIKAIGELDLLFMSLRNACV
Put plainly: EC50 in summary table; assay not named, taken as binding ELISA; murine IL-22 (m).

Assay [11] has as its target T2, human IL-22. Kind of assay: EC50 in summary table; assay not named, taken as binding ELISA.
Assay [12] concerns the target T2, human IL-22. Kind of assay: SPR (ProteOn XPR36), antibody captured by anti-human IgG (L1), IL-22 injected at 100 to 1.23 nM and buffer.
Assay [13] deals with T2, human IL-22. Kind of assay: SPR (ProteOn XPR36), antibody captured by anti-human IgG, IL-22 injected at 100 to 1.23 nM, 1:1 Langmuir fit, grouped.
Protocol: (§1) Data was referenced using the interspot regions of the sensor chip.
(§2) For affinity determination of the antibodies of the present invention SPR measurements were performed using a ProteOn™ XPR36 instrument, according to the instructions of the manufacturer (BIO-RAD; Hercules Calif., USA). First, anti-human IgG was coupled simultaneously on 5 surfaces of the 6×6 interaction array of a GLC sensor chip by EDC/NHS chemistry, no antibody was sixth immobilized on the sixth surface, but the surface was treated with the same activation and deactivation protocol as the other five surfaces. The MABs (ligands) to be tested were injected afterwards into 6 channels of the chip (in the vertical direction) and simultaneously captured at very similar capture efficiency and percentage activity. […] Data was referenced using the interspot regions between the flow channels. […] Binding experiments were repeated twice and data is represented as a mean of two independent experiments.
Assay [14] deals with T2, human IL-22. Put plainly: SPR (ProteOn XPR36), antibody captured by anti-human IgG, IL-22 injected at 100 to 1.23 nM, 1:1 Langmuir fit, mean of two experiments.
Protocol: as §1, §2
Assay [15] has as its target T2, human IL-22. Kind of assay: SPR (ProteOn XPR36), antibody captured by anti-human IgG, IL-22 injected at 100 to 1.23 nM, 1:1 Langmuir fit, grouped. The source holds these as a separate data set.
Protocol: as §1, §2

B1: IL-17F specific antibody 9A2 (antibody, human IgG1, kappa, V domains shown)
VH: EVQLEESGGGLVQPGGSLRLSCAASGFPFSNYEMNWVRQAPGKGLEWISYISVSGGPAHYADSVKGRFTISRDDATKSLFLQMNRLRADDTAVYYCVRREYVTGRNYNYYPYMDVWGTGTTVTVSP
VL: DIQMTQSPSSLSASVGDRVTITCRASQTISDYLNWYQHKPGEAPKLLIYSASTLQRGVPSRFSGSGSGTDFVFTISSLQSDDFATYYCQQTSSTALTFGGGTKVEVKR
notes: also called a-IL17-9A2
With B1, in the assay with human IL-17F [1], the “IC50 Neutralization (ng/ml); GRO-alpha production by NCTC 2544 keratinocytes” value (“IC50 Neutralization … by NCTC 2544 keratinocytes” below) worked out at 45 ng/mL. For the same molecule, the 50% effective concentration (EC50) with human IL-17F [2] worked out at 0.003 µg/mL. In addition, in the assay with human IL-17F [3], the “EC50 (read off the curve)” value is around 0.02 µg/mL. In the assay with human IL-17F [4], this molecule showed a kon of around 800000 M⁻¹ s⁻¹. The binding result with human IL-22 [5] is reported as “no binding (tested: 100 nM)”.

B2: IL-17F and IL-17A specific antibody 17E3 (antibody, human IgG1, kappa, V domains shown)
VH: QVQLVQSGAEVAKPGASVRLSCKASGFSFIKYYMHWVRQAPGQGLEWMGVIEPTGGGTSSAQKFRDRVTLSRDTSTATVHLEVSRLTLEDTGIYFCVRDSIYCKHGTCHRTVIDAFDIWGQGTAVTVSS
VL: DIQMTQSPSSLSASVGDRVTITCRSSQDIKNDLAWYQQKPGKAPERLIYAASNLQSGVPSRFSGSGSGTEFSLTISGLQPEDFATYYCLQHNSYPLLTFGGGTKVEIKR
notes: also called a-IL17-17E3
On to B2, for which the “IC50 Neutralization … by NCTC 2544 keratinocytes” value in assay [6] is 12 ng/mL; with human IL-17F [1], 15 ng/mL. This molecule yielded a kon with human IL-17F [4] of around 300000 M⁻¹ s⁻¹. Also, the results for the EC50 in the assay with human IL-17A and with human IL-17F [7] were 0.824 µg/mL and 0.002 µg/mL, respectively. Also, the binding result with human IL-22 [8] is on record as “no binding (tested: 100 nM)”.

B3: IL-22 specific antibody 41D11 (antibody, human IgG1, lambda, V domains shown)
VH: QVQLHESGPGLVKPSETLSVTCSLSGGSISSSSHLWAWIRQPPEKGLEYIGRIHYRGSVSYNPSLKSRAAISVDTAKNQFSLTLSAVTAADTSFYYCARLDMGAIDKWGQGTLVIVSS
V domain: QPVLTQSPSASASLGASIKLTCTLSSGHSNYDIAWHQQQSGKGPRFLMRVNNGGSHNKGDGIPDRFSGSSSGAERYLTISSLQSEDEADYYCQTWGTGTHVFGTG
notes: also called a-IL-22-41D11
B3: in the assay with human IL-22 [9], the “IC50 Neutralization (ng/ml); IL-10 production by Colo205 cells” value was 38 ng/mL. Besides, the figures for the EC50 with human IL-22 [10] and in the assay with mouse IL-22 were 0.005 µg/mL and 0.06 µg/mL, respectively.

B4: IL-22 specific antibody 51G4 (antibody, human IgG2, lambda, V domains shown)
VH: EVQLVQSGAEVKKPGASVKVSCKTSGYKFALYDIHWVRQAPGQGLEWMGWINAANGDTEYSQKFEGRVTITRDTSATTVYMELNSLTYGDTAVYYCAREEGLYNWFDPWGQGTLVTVSS
VL: SYELTQDPAVSVALGQTVRITCQGDSLRIYYANWYQQKPGQAPVLVIYGKSNRPSGIPDRFSASSSGNTASLTITGAQAEDEADYYCNSRDSSDKHPVPFGGGTKLTVLS
notes: also called a-IL-22-51G4
In turn, B4 came in with an EC50 with human IL-22 [11] of 0.067 to 0.148 µg/mL.

B5: IL-17F specific antibody 24D3 (antibody, human IgG1, lambda, V domains shown)
VH: EVKLEESGGDLVKPGGSLRLSCVASGFTFGTAWMSWVRQAPGKGLEWVGRISNKDTGGRIDYAAPVRGRFAISRDDSKATLFLQMNSLKTEDTAVYFCTTNFYDVLTGDHVDYWGQGTVVVVSS
VL: SYELTQPPSVSVSPGETARIPCSGETLPKKLVYWYQQKPGQAPVLMIYKDSERPSRISERFSGSNSGTMASLTISGVQAEDEADYYCQTSDSSGVVFGGGTKLTVLG
notes: also called a-IL17-24D3; aIL-17 24D3
Regarding B5, the “IC50 Neutralization … by NCTC 2544 keratinocytes” value lay in the range of 6 to 14 ng/mL in [6] and 12 to 22 ng/mL with human IL-17F [1]. The molecule further yielded an EC50 with human IL-17F [2] of 0.002 µg/mL. In the assay with human IL-17F [4], this molecule displayed a kon of around 600000 M⁻¹ s⁻¹. The binding result in the assay with human IL-22 [12] is recorded as “no binding (tested: 100 nM)”.

B6: IL-22 specific antibody 30G1 (antibody, human IgG1, kappa, V domains shown)
VH: EVQLLESGGGLVQPGGSLRLSCAASGFTFSTYAMSWVRQAPGKGLEWVSTITSSGGATYHADSVKGRLTISRDNSKNTLYLEMNSLRVEDTAVYYCAKDWGRTVYAVIKDLDIWGQGTLVTVSS
VL: EIVMTQSPAILSVSPGERATLSCRASQSVSNYLAWFQQKPGQAPRLLIYDTSKRATGTPARFSGSGSGTDFTLTISSLEPEDFAVYFCQQRSDWPQYTFGQGTKLEIKR
notes: also called aIL-22 30G1
For B6, the binding result in the assay with human IL-17F [4] is “no binding (tested: 100 nM to 1.23 nM)”. In the assay with human IL-22 [10], this molecule yielded an EC50 of 0.003 µg/mL. The molecule further came in with an EC50 with mouse IL-22 of 0.015 µg/mL. In the assay with human IL-22 [13], this molecule showed a Kd of 35.2 pM, a koff of 1.55e-05 s⁻¹ and a kon of 441000 M⁻¹ s⁻¹. Besides, binding with human IL-22 [14] was characterised by a dissociation constant (Kd) of 36.5 pM.

B7: IL-22 specific antibody 35G11 (antibody, human IgG4, lambda, V domains shown)
VH: QVQLVQSGSELRRPGASVNISCKASGYGFNTYAMNWVRQAPGQGPEWMGWINTDTGDPTYAQGFTGRFAFFLDTSASTAFLQITRLTGEDTAVYFCARTRNNWNGVYYHYSGLDVWGQGTTVTVSS
VL: QSVLTQPPSASGTPGQTVTISCSGSSPNLGDNYVYWYHQVPGTAPKLLIFRNTQRPSGVTDRFSGSKYGTSASLAISDLRSDDEGDFYCASWDDRLSRLVFGGGTKLTVLG
notes: also called a-IL-22-35G11; aIL-22 35G11
Regarding B7, the response with human IL-22 [11] was half-maximal at 0.007 µg/mL (EC50). Moreover, in the assay with human IL-17F [4], the binding result is “no binding (tested: 100 nM to 1.23 nM)”. In the assay with human IL-22 [15], this molecule returned a Kd of 45.7 pM, a koff of 8.09e-05 s⁻¹ and a kon of 1.77e+06 M⁻¹ s⁻¹. Moreover, in the assay with human IL-22 [14], the equilibrium dissociation constant (Kd) is 39 pM.
